# Reference: paper PMC5409479
# Key:
# [1] = molecular target: wild-type human glucagon-like peptide-1 receptor (double c-Myc, V5) (human) (UniProt P43220)
# [2] = molecular target: human GLP-1R Y42azF (human) (UniProt P43220)
# [3] = molecular target: human GLP-1R L32azF (human) (UniProt P43220)
# [4] = molecular target: human GLP-1R W39azF (human) (UniProt P43220)
# [5] = molecular target: human GLP-1R E127azF (human) (UniProt P43220)
# [6] = molecular target: human GLP-1R L118azF (human) (UniProt P43220)
# [7] = molecular target: human GLP-1R P90azF (human) (UniProt P43220)
# [8] = molecular target: human GLP-1R V30azF (human) (UniProt P43220)
# [9] = molecular target: human GLP-1R R40azF (human) (UniProt P43220)
# [10] = molecular target: human GLP-1R Y88azF (human) (UniProt P43220)
# [11] = molecular target: human GLP-1R V36azF (human) (UniProt P43220)
# [12] = molecular target: human GLP-1R S135azF (human) (UniProt P43220)
# [13] = molecular target: human GLP-1R L123azF (human) (UniProt P43220)
# [14] = molecular target: human GLP-1R F103azF (human) (UniProt P43220)
# [15] = molecular target: human GLP-1R E68azF (human) (UniProt P43220)
# [16] = molecular target: human GLP-1R Y69azF (human) (UniProt P43220)
# [17] = molecular target: human GLP-1R E125azF (human) (UniProt P43220)
# [18] = molecular target: human GLP-1R S117azF (human) (UniProt P43220)
# [19] = molecular target: human GLP-1R S124azF (human) (UniProt P43220)
# [20] = molecular target: human GLP-1R S116azF (human) (UniProt P43220)
# [21] = molecular target: human GLP-1R S31azF (human) (UniProt P43220)
# [22] = molecular target: human GLP-1R P119azF (human) (UniProt P43220)
# [23] = molecular target: human GLP-1R T35azF (human) (UniProt P43220)
# [24] = molecular target: human GLP-1R E138azF (human) (UniProt P43220)
# [25] = molecular target: human GLP-1R R121azF (human) (UniProt P43220)
# [26] = molecular target: human GLP-1R F80azF (human) (UniProt P43220)
# [27] = molecular target: human GLP-1R F61azF (human) (UniProt P43220)
# [28] = molecular target: human GLP-1R L89azF (human) (UniProt P43220)
# [29] = molecular target: human GLP-1R Y101azF (human) (UniProt P43220)
# [30] = molecular target: human GLP-1R W33azF (human) (UniProt P43220)
# [31] = molecular target: human GLP-1R A70azF (human) (UniProt P43220)
# [32] = molecular target: human GLP-1R R134azF (human) (UniProt P43220)
# [33] = molecular target: wild-type human glucagon-like peptide-1 receptor (double c-Myc, V5) (human) (UniProt P43220); remark: listed apart in the source
# [34] = molecular target: human GLP-1R W91azF (human) (UniProt P43220)
# Chain of human GLP-1R W91azF (human) (P43220 24-463 W91F): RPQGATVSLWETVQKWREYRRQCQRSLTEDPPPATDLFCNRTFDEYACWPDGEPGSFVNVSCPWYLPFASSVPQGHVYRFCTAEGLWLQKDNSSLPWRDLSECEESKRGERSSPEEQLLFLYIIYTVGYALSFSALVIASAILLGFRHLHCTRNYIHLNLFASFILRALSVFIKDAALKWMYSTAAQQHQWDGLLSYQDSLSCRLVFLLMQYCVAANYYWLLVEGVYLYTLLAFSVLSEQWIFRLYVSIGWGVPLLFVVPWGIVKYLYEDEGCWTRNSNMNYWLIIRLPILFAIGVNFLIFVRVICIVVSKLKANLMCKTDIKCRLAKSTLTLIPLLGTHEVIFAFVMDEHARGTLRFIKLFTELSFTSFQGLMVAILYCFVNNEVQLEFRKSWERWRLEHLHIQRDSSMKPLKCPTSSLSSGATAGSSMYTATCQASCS
# Chain of wild-type human glucagon-like peptide-1 receptor (double c-Myc, V5) (human) (P43220 24-463): as the sequence (P43220 24-463 W91F) above, with F68W counted along it
# Chain of human GLP-1R S124azF (human) (P43220 24-463 S124F): as the sequence (P43220 24-463 W91F) above, with F68W, S101F counted along it
# Chain of human GLP-1R R121azF (human) (P43220 24-463 R121F): as the sequence (P43220 24-463 W91F) above, with F68W, R98F counted along it
# Chain of human GLP-1R L123azF (human) (P43220 24-463 L123F): as the sequence (P43220 24-463 W91F) above, with F68W, L100F counted along it
# Chain of human GLP-1R V30azF (human) (P43220 other isoform, or with tags, fused parts or gaps): as the sequence (P43220 24-463 W91F) above, with V7F, F68W counted along it
# Chain of human GLP-1R P90azF (human) (P43220 24-463 P90F): as the sequence (P43220 24-463 W91F) above, with P67F, F68W counted along it
# Chain of human GLP-1R A70azF (human) (P43220 24-463 A70F): as the sequence (P43220 24-463 W91F) above, with A47F, F68W counted along it
# Chain of human GLP-1R Y69azF (human) (P43220 24-463 Y69F): as the sequence (P43220 24-463 W91F) above, with Y46F, F68W counted along it
# Chain of human GLP-1R W33azF (human) (P43220 other isoform, or with tags, fused parts or gaps): as the sequence (P43220 24-463 W91F) above, with W10F, F68W counted along it
# Chain of human GLP-1R L32azF (human) (P43220 other isoform, or with tags, fused parts or gaps): as the sequence (P43220 24-463 W91F) above, with L9F, F68W counted along it
# Chain of human GLP-1R S31azF (human) (P43220 other isoform, or with tags, fused parts or gaps): as the sequence (P43220 24-463 W91F) above, with S8F, F68W counted along it
# Chain of human GLP-1R R134azF (human) (P43220 24-463 R134F): as the sequence (P43220 24-463 W91F) above, with F68W, R111F counted along it
# Chain of human GLP-1R Y42azF (human) (P43220 other isoform, or with tags, fused parts or gaps): as the sequence (P43220 24-463 W91F) above, with Y19F, F68W counted along it
# Chain of human GLP-1R R40azF (human) (P43220 other isoform, or with tags, fused parts or gaps): as the sequence (P43220 24-463 W91F) above, with R17F, F68W counted along it
# Chain of human GLP-1R E68azF (human) (P43220 24-463 E68F): as the sequence (P43220 24-463 W91F) above, with E45F, F68W counted along it
# Chain of human GLP-1R L118azF (human) (P43220 24-463 L118F): as the sequence (P43220 24-463 W91F) above, with F68W, L95F counted along it
# Chain of human GLP-1R E138azF (human) (P43220 24-463 E138F): as the sequence (P43220 24-463 W91F) above, with F68W, E115F counted along it
# Chain of human GLP-1R T35azF (human) (P43220 other isoform, or with tags, fused parts or gaps): as the sequence (P43220 24-463 W91F) above, with T12F, F68W counted along it
# Chain of human GLP-1R S117azF (human) (P43220 24-463 S117F): as the sequence (P43220 24-463 W91F) above, with F68W, S94F counted along it
# Chain of human GLP-1R Y88azF (human) (P43220 24-463 Y88F): as the sequence (P43220 24-463 W91F) above, with Y65F, F68W counted along it
# Chain of human GLP-1R E127azF (human) (P43220 24-463 E127F): as the sequence (P43220 24-463 W91F) above, with F68W, E104F counted along it
# Chain of human GLP-1R S116azF (human) (P43220 24-463 S116F): as the sequence (P43220 24-463 W91F) above, with F68W, S93F counted along it
# Chain of human GLP-1R W39azF (human) (P43220 other isoform, or with tags, fused parts or gaps): as the sequence (P43220 24-463 W91F) above, with W16F, F68W counted along it
# Chain of human GLP-1R P119azF (human) (P43220 24-463 P119F): as the sequence (P43220 24-463 W91F) above, with F68W, P96F counted along it
# Chain of human GLP-1R E125azF (human) (P43220 24-463 E125F): as the sequence (P43220 24-463 W91F) above, with F68W, E102F counted along it
# Chain of human GLP-1R F80azF (human) (P43220 24-463): as the sequence (P43220 24-463 W91F) above, with F68W counted along it
# Chain of human GLP-1R F61azF (human) (P43220 24-463): as the sequence (P43220 24-463 W91F) above, with F68W counted along it
# Chain of human GLP-1R F103azF (human) (P43220 24-463): as the sequence (P43220 24-463 W91F) above, with F68W counted along it
# Chain of human GLP-1R Y101azF (human) (P43220 24-463 Y101F): as the sequence (P43220 24-463 W91F) above, with F68W, Y78F counted along it
# Chain of human GLP-1R L89azF (human) (P43220 24-463 L89F): as the sequence (P43220 24-463 W91F) above, with L66F, F68W counted along it
# Chain of human GLP-1R V36azF (human) (P43220 other isoform, or with tags, fused parts or gaps): as the sequence (P43220 24-463 W91F) above, with V13F, F68W counted along it
# Chain of human GLP-1R S135azF (human) (P43220 24-463 S135F): as the sequence (P43220 24-463 W91F) above, with F68W, S112F counted along it
substance,measurement,setting,value
fluorescein(Lys-20)-exendin-4 (peptide),"cAMP accumulation in HEK293T cells transiently expressing the human GLP-1R, pEC50",[1],9.3 -log10 M
exendin-4 (from UniProt P26349 48-87) (peptide),"exendin-4-mediated cAMP accumulation in HEK293T cells (+azF), pEC50",[2],10.6 -log10 M
same,"exendin-4-mediated cAMP accumulation in HEK293T cells (+azF), pEC50",[3],11.1 -log10 M
same,"exendin-4-mediated cAMP accumulation in HEK293T cells (+azF), pEC50",[4],10.6 -log10 M
same,"exendin-4-mediated cAMP accumulation in HEK293T cells (+azF), pEC50",[5],10.8 -log10 M
same,"exendin-4-mediated cAMP accumulation in HEK293T cells (+azF), pEC50",[6],11.5 -log10 M
same,"exendin-4-mediated cAMP accumulation in HEK293T cells (+azF), pEC50",[7],9.9 -log10 M
same,"exendin-4-mediated cAMP accumulation in HEK293T cells (+azF), pEC50",[8],11.2 -log10 M
same,"exendin-4-mediated cAMP accumulation in HEK293T cells (+azF), pEC50",[9],11.5 -log10 M
same,"exendin-4-mediated cAMP accumulation in HEK293T cells (+azF), pEC50",[10],10.6 -log10 M
same,"exendin-4-mediated cAMP accumulation in HEK293T cells (+azF), pEC50",[11],11.4 -log10 M
same,"exendin-4-mediated cAMP accumulation in HEK293T cells (+azF), pEC50",[12],11.5 -log10 M
same,"exendin-4-mediated cAMP accumulation in HEK293T cells (+azF), pEC50",[13],11.2 -log10 M
same,"exendin-4-mediated cAMP accumulation in HEK293T cells (+azF), pEC50",[14],11.4 -log10 M
same,"exendin-4-mediated cAMP accumulation in HEK293T cells (+azF), pEC50",[15],11.4 -log10 M
same,"exendin-4-mediated cAMP accumulation in HEK293T cells (+azF), pEC50",[16],10.8 -log10 M
same,"exendin-4-mediated cAMP accumulation in HEK293T cells (+azF), pEC50",[17],10.3 -log10 M
same,"exendin-4-mediated cAMP accumulation in HEK293T cells (+azF), pEC50",[18],11.1 -log10 M
same,"exendin-4-mediated cAMP accumulation in HEK293T cells (+azF), pEC50",[19],11.4 -log10 M
same,"exendin-4-mediated cAMP accumulation in HEK293T cells (+azF), pEC50",[20],11.4 -log10 M
same,"exendin-4-mediated cAMP accumulation in HEK293T cells (+azF), pEC50",[21],11.1 -log10 M
same,"exendin-4-mediated cAMP accumulation in HEK293T cells (+azF), pEC50",[22],11.4 -log10 M
same,"exendin-4-mediated cAMP accumulation in HEK293T cells (+azF), pEC50",[23],9.5 -log10 M
same,"exendin-4-mediated cAMP accumulation in HEK293T cells (+azF), pEC50",[24],11 -log10 M
same,"exendin-4-mediated cAMP accumulation in HEK293T cells (+azF), pEC50",[25],10 -log10 M
same,"exendin-4-mediated cAMP accumulation in HEK293T cells (+azF), pEC50",[26],11.3 -log10 M
same,"exendin-4-mediated cAMP accumulation in HEK293T cells (+azF), pEC50",[27],11.3 -log10 M
same,"exendin-4-mediated cAMP accumulation in HEK293T cells (+azF), pEC50",[28],9.6 -log10 M
same,"exendin-4-mediated cAMP accumulation in HEK293T cells (+azF), pEC50",[29],11.5 -log10 M
same,"exendin-4-mediated cAMP accumulation in HEK293T cells (+azF), pEC50",[30],11.4 -log10 M
same,"exendin-4-mediated cAMP accumulation in HEK293T cells (+azF), pEC50",[31],9.1 -log10 M
same,"exendin-4-mediated cAMP accumulation in HEK293T cells (+azF), pEC50",[32],11.1 -log10 M
same,"exendin-4-mediated cAMP accumulation in HEK293T cells, pEC50",[33],10.8 -log10 M
same,"exendin-4-mediated cAMP accumulation in HEK293T cells (+azF), pEC50",[34],11.5 -log10 M
